Data published in patent publication US20120322150A1 (CARNEGIE INSTITUTION OF WASHINGTON, published 2012).

Legend:
Test in all cases: BiFC in tobacco leaf epidermal cells
[1] = target: BSU1 (BiFC construct tested with BSK1-cYFP) (Arabidopsis, UniProt Q9LR78 1-793)
From the text: (§1) The blot was probed sequentially with MBP-BSU1 and anti-MBP antibody (upper) and then stained with Ponceau S (lower). […] Tobacco leaf epidermal cells were transformed with indicated constructs. At5g49760 is a receptor kinase unrelated to BR signaling used here as a negative control. Bright spots in nYFP+BSK 1-cYFP and At5g49760-nYFP+BSK1-cYFP are chloroplast auto-fluorescence. […] Total protein extracts obtained from Arabidopsis plants (F1) expressing BSU1 -YFP or co-expressing BSU1-YFP and BSK1-myc were immunoprecipitated with anti-myc, and the immunoblot was probed with anti-GFP and anti-myc antibody. […] GST-BSK1 or GST-BSK1 S230A was incubated with GST-BRI1-K or GST for 2 hrs. […] In the presence of BR (+BR), BR binding to the extracellular domain of BRI1 induces dissociation of BKI1 and association and inter-activation between BRI1 and BAKI. Activated BRI1 then phosphorylates BSK1, which in turn dissociates from the receptor complex and interacts with and presumably activate BSU1. BSU1 inactivates BIN2 by dephosphorylating its pTyr200, allowing accumulation of unphosphorylated BZR1/2, likely with help of a phosphatase that is yet to be identified. Unphosphorylated BZR1/2 accumulate in the nucleus and alter the expression of BR-target genes, leading to cellular and developmental responses. While individual representative protein is shown for each function, in Arabidopsis most of these components have about 2 to 5 homologous proteins (paralogs) that can contribute to the same or similar signaling function.
(§2) Transformation by Agrobacterium infiltration, observations of subcellular localization and BiFC signal in tobacco or Arabidopsis were performed as described previously 5.

[2] = target: T1, BSL1 (BiFC construct tested with BSK1-cYFP) (Arabidopsis, UniProt Q8L7U5 1-881)
T1 sequence: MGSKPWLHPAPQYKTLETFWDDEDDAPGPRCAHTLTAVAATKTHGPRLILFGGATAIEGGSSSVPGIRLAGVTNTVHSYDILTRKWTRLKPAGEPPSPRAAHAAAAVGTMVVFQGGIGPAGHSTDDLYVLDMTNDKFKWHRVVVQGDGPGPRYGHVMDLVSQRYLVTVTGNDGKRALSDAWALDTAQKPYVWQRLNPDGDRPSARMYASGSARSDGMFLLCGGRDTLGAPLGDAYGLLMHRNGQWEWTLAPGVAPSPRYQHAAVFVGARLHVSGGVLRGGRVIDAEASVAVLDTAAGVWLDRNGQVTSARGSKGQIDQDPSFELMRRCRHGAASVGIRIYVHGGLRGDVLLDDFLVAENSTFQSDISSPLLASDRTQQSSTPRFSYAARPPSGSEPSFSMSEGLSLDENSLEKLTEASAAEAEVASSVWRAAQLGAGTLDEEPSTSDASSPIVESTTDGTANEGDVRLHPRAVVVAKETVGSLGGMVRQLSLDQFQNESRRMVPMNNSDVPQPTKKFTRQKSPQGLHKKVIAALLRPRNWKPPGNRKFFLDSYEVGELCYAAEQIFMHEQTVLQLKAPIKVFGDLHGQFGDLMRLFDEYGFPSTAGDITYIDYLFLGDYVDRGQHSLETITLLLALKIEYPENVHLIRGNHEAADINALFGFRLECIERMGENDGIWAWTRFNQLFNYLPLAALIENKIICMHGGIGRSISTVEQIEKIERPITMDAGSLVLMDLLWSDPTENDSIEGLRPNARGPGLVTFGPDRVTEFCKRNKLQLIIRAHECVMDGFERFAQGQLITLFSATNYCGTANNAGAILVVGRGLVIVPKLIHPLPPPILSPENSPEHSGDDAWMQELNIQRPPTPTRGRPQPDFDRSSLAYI
From the text: as §1, §2

At5g49760-nYFP = target: T2, At5g49760-nYFP (UniProt Q8GZ99 24-953)
T2 construct: BiFC negative control; not shown: N-terminal half of YFP (nYFP)
T2 sequence (looked up): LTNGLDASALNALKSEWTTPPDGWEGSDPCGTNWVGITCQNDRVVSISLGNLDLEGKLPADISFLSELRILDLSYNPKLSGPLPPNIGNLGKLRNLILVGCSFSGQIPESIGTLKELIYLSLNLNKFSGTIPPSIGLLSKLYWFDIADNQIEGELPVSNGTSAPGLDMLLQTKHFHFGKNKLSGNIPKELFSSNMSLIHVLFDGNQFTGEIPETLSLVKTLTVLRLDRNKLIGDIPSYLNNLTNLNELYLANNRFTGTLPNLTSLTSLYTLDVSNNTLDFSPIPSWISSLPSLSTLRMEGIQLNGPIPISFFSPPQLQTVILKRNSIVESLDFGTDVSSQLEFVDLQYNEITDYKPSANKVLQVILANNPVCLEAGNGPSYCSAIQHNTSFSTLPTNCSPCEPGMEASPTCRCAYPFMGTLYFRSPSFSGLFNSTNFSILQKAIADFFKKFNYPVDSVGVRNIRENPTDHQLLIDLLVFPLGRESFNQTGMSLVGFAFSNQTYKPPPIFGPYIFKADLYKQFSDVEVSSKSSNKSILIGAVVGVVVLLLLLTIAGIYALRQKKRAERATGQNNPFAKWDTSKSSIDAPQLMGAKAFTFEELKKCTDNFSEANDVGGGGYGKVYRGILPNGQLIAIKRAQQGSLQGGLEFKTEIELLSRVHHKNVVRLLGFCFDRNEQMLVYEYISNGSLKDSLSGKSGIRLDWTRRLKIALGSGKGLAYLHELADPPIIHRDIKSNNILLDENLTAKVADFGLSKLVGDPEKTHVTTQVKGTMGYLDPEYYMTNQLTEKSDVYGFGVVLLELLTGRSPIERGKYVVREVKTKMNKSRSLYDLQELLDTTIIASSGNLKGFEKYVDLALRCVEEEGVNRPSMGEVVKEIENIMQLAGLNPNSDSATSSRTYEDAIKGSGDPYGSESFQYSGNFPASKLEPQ
From the text: as §1, §2

Sequence of BSU1 (BiFC construct tested with BSK1-cYFP) (Q9LR78 whole entry, the tested form may be a part): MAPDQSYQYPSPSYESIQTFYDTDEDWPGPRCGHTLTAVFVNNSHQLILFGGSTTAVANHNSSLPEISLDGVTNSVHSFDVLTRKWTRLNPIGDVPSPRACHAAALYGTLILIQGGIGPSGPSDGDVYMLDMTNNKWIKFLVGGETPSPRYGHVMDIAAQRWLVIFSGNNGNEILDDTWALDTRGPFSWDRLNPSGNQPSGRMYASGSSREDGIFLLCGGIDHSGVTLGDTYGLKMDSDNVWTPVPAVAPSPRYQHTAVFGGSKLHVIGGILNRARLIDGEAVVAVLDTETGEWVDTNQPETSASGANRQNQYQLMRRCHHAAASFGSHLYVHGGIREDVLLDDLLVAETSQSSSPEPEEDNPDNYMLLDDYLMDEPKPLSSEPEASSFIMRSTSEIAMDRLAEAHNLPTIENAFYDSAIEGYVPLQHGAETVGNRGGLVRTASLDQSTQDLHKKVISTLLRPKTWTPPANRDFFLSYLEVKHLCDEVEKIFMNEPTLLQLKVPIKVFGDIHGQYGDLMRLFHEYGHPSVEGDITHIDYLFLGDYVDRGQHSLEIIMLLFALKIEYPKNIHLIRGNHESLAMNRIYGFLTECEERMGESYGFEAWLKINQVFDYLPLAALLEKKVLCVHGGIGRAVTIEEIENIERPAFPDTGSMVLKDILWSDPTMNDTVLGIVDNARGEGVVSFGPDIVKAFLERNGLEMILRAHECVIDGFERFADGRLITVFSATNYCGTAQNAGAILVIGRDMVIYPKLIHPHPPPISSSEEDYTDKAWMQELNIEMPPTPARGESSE

B1: BSK1-cYFP (enzyme, Arabidopsis, UniProt Q944A7 2-512, looked up)
chain: GCCQSLFSGDNPLGKDGVQPQPLSQNNHGGATTADNGGSGGASGVGGGGGGGGIPSFSEFSFADLKAATNNFSSDNIVSESGEKAPNLVYKGRLQNRRWIAVKKFTKMAWPEPKQFAEEAWGVGKLRHNRLANLIGYCCDGDERLLVAEFMPNDTLAKHLFHWENQTIEWAMRLRVGYYIAEALDYCSTEGRPLYHDLNAYRVLFDEDGDPRLSCFGLMKNSRDGKSYSTNLAYTPPEYLRNGRVTPESVTYSFGTVLLDLLSGKHIPPSHALDMIRGKNIILLMDSHLEGKFSTEEATVVVELASQCLQYEPRERPNTKDLVATLAPLQTKSDVPSYVMLGIKKQEEAPSTPQRPLSPLGEACSRMDLTAIHQILVMTHYRDDEGTNELSFQEWTQQMKDMLDARKRGDQSFREKDFKTAIDCYSQFIDVGTMVSPTVFGRRSLCYLLCDQPDAALRDAMQAQCVYPDWPTAFYMQSVALAKLNMNTDAADMLNEAAQLEEKRQRGGRGS
notes: BiFC construct in tobacco leaf epidermal cells; not shown: C-terminal half of YFP (cYFP)
binding result [1]: binds | binding result [2]: binds | binding result (At5g49760-nYFP): no binding
